Measured values reported in patent US20150376238A1 (University of Washington, published 2015).

Tests used:
[1] = molecular target: H1 hemagglutinin (A/South Carolina/1/1918) (Influenza A virus A/South …, UniProt Q9WFX3 18-520); assay: yeast surface display titration
[2] = molecular target: H3 hemagglutinin (A/Hong Kong/1/1968) (Influenza A virus A/Hong Kong/1/1968 …, UniProt Q91MA7 27-521); assay: yeast surface display titration
Chain of H3 hemagglutinin (A/Hong Kong/1/1968) (Q91MA7 27-521 limits assumed): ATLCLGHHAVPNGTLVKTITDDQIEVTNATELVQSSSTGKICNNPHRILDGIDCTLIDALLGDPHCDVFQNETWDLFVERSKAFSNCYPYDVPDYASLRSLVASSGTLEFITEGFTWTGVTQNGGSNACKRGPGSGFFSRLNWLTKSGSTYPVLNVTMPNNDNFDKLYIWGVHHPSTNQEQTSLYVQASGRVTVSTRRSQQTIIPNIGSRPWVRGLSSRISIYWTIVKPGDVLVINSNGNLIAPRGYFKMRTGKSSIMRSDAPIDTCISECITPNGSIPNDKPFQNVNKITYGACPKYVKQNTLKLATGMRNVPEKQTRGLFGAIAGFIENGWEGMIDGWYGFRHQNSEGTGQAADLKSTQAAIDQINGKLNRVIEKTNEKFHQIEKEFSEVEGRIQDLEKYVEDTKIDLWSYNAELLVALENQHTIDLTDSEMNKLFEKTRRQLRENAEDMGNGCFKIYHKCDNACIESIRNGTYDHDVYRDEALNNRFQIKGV

Chain of H1 hemagglutinin (A/South Carolina/1/1918) (Q9WFX3 18-520 limits assumed): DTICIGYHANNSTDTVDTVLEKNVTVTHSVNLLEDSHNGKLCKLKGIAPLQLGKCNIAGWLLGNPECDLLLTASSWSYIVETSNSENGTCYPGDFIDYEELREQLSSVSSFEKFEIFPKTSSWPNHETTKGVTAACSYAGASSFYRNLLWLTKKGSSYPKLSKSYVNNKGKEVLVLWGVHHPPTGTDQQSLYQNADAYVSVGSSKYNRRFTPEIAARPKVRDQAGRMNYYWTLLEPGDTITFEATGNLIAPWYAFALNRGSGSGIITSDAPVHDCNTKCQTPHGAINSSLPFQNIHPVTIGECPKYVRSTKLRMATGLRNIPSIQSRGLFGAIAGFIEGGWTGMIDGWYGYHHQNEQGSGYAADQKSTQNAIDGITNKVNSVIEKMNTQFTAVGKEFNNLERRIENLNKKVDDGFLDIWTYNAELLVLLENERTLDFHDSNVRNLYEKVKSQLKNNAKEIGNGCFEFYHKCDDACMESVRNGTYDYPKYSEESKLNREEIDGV

B1: 52alt1-3 (designed binder)
chain: GIVNVPNPNTTKYQQLARSAIAIYNNHQNAHLEFVENLNVKEQVSYGAMYYITLAATDDAGKKKIYKAKVGVVESAGWVGVEEFKLV
In the case of B1, the binding result [1] is reported as “no binding” and the Kd [2] is reported as 3 nM.
